{"source": "paper PMC5498992", "target": "chitin binding domain-intein fusion of the ToxR periplasmic domain (CBDI-ToxRp) (V. cholerae El Tor N16961), P15795", "assay": "pull-down", "note": "Several values for one entry are separate records, joined by “and”; a condition that tells them apart may be missing. Equal entries are not always repeated."}
{"binder": "ToxS periplasmic domain (ToxSp), purified, cleaved from the chitin binding domain-intein tag, P24003 25-173 (domain or fragment, modifications not checked) SDFKLEQVLTSREWQSKMVSLIKTNSNRPAMGPLSRVDVTSNVKYLPNGTYLRVSIVKLFSDDNSAESVINISEFGEWDISDNYLLVTPVEFKDISSNQSKDFTDEQLQLITQLFKMDAQQSRRVDIVNERTILFTSLSHGSTVLFSNS", "values": [{"measurement": "percent of input pulled down", "value": "6% and 9%"}]}
